Data from patent US10502741B2, “Means and methods for detecting activated MALT1” (Helmholtz Zentrum München Deutsches Forschungszentrum für …, priority 2014, dated 2019).

Molecular target: cathepsin B (Homo sapiens, UniProt P07858)
Experiment: Labeling with diagnostic inhibitor in cell extracts (gel-based, fluorescence scan): about 30 kDa cathepsin B band
Parameters: endogenous in cells; host or cells: Jurkat T cells; HBL1 and other DLBCL cell lines
Procedure: Jurkat T cells were cultured in standard RPMI medium containing 10% FCS, 100 U/ml Penicillin/Streptomycin and 2 mM Glutamin. DNA transfection of 6 μg DNA in 8×10^6 Jurkat T cells was performed by electroporation in a GenePulser Xcell (BioRad) with a 220 Volt pulse. For siRNA experiments, Jurkat T cells were transfected with 100 nM siRNA and Atufect transfection reagent (Silence Therapeutics, Berlin). Jurkat T cells were stimulated either with 200 ng/ml PMA (phorbol 12-myristate 13-acetate) and 300 ng/ml Ionomycin (both Calbiochem) or CD3/CD28 antibody co-ligation (human CD3: 1 μg/ml; human CD28: 4 μg/ml; mouse IgG1: 2 μg/ml; mouse IgG2a: 2 μg/ml; BD Biosciences). DLBCL cell lines (HBL1, TMD8, OCI-Ly3, U2932, RIVA, BJAB, Su-DHL-4 and Su-DHL-6) were cultured in standard RPMI medium containing 20% FCS, 100 U/ml Penicillin/Streptomycin and 2 mM Glutamin. OCI-Ly10 cell line was cultured in IMDM containing 20% human serum, 100 U/ml Penicillin/Streptomycin, 2 U/ml heparine, 50 μM β-mercaptoethanol. Inhibitors 10 μM (z-VRPR-FMK, Mepazine, Thioridazine, CA-074Me) were added to the cells in media for 1 h, prior to stimulation and labeling with diagnostic MALT1 inhibitor.
Jurkat T cells (1-2×10^7), primary human PBMCs or primary human T cells (0.25 or 1×10^7) were lysed in 150 μl co-IP buffer without protease inhibitors. DLBCL (3×10^7) were lysed in 250 μl buffer. After centrifugation (14000 rpm, 10 min, 4° C.), 100 μl extract (DLBCL: 200 μl) was stained with probe 5 or probe 6 (3 μM end) for 50 min at 29° C., mixed with 4× loading dye and boiled.

effect of inhibitor on the about 30 kDa cathepsin B signal labeled by probe 6 (HBL1 cells, inhibitors 10 μM each): sensitive | effect of inhibitor pretreatment on the band below 34 kDa (cathepsin B) labeled by probe 5 (Jurkat T cells, 10 μM inhibitor, probe 5): reduced
Substance: z-VRPR-FMK (Z N-terminal cap, FMK warhead)
